The record followed here is patent publication US20140024050A1 (published 2014).

Bridges are numbered along the chain shown (N, C = ends). Where no end group is shown, it is not given here.

B1: Gla domain Protein Z peptide (sequence 16) (peptide)
peptide: LEKECYEEICVYEEA
notes: also called PIVKAII Gla domain (13-27) analog; PIVKAII peptide analog
B2: Gla domain Protein C peptide (sequence 14) (peptide)
peptide: LERECIEEICDFEEA
notes: as for B1
B3: PIVKAII (13-27) peptide, unlabeled (peptide)
peptide: LERECVEETCSYEEA
notes: also called PIVKA-II peptide (13-27)
B4: Gla domain Factor X peptide (sequence 12) (peptide)
peptide: LERECMEETCSYEEA
notes: as for B1
B5: Gla domain Protein S peptide (sequence 15) (peptide)
peptide: LERECIEELCNKEEA
notes: as for B1
B6: Gla domain Factor VII peptide (sequence 13) (peptide)
peptide: LERECKEEQCSFEEA
notes: as for B1
B7: anti-PIVKA-II monoclonal antibody 3C10 (hybridoma-derived) (antibody, V domains shown)
VH: EVQLVESGGDLVKPGGSLKLSCAASGFTFSSYGMSWVRQTPDKRLEWVATISRGGSSTYYPDSVKGRFTISRDNAKNNLYLQMSSLKSEDTAMYYCASLNYGNFFDYWGQGTTLTVSS
VL: DVVMTQTPLSLPVSLGDQASISCRSSQSLVHSNGNTYLHWYLQKPGQSPKLLIYKVSNRFSGVPDRFSGSGSGTDFTLKISRVEAEDLGVYFCSQNRHVPPTFGGGTKLEIKR
notes: Mouse monoclonal from a GANP transgenic C57BL/6 mouse immunized with PIVKA-II 13-27 peptide-KLH; For the Kd by quenching the antibody carried Black Hole Quencher (I.R. 2.3); also called mAb 3C10; clone 3C10
B8: Gla domain Factor IX peptide (sequence 11) (peptide)
peptide: LERECMEEKCSFEEA
notes: as for B1

The target in experiment [1] is B7. The experiment can be described thus: FCS displacement: 2 nM Alexa488-PIVKAII (13-27) premixed with 10 nM mAb 3C10, analog added, overnight. The method, then: (§1) Then, various PIVKAII Gla domain (13-27) analogs were added to the sample. PIVKAII (13-27) was added as a positive control, and the original sample was used as a negative control. FCS measurements were performed on each sample after overnight incubation.

Experiment [2] concerns the target B7. The experiment can be described thus: FCS displacement of Alexa488-PIVKAII (13-27) from mAb 3C10, positive control. The method, then:
as §1

Experiment [3] concerns the target T1, PIVKA-II antigen (heat-decarboxylated prothrombin) (UniProt P00734 44-622, Gla residues of the Gla domain decarboxylated to glutamic acid by heating dried prothrombin powder at 110 C for 8 hours).
T1 construct: Residues 13-27 are counted on the Gla domain
The experiment can be described thus: FCS displacement of Alexa488-PIVKAII (13-27) from mAb 3C10 by PIVKA-II preparations. The method, then: Various amounts of PIVKAII from different preparations were added to the antigen-antibody complex. After overnight incubation, FCS measurements were performed on each sample.

For experiment [4], the target named is T2, Alexa-488 labeled PIVKAII Gla domain peptide (13-27), cyclized (disulfide 5-10 (inferred); also: Alexa Fluor 488 attached via TFP active ester, site not given here).
T2 construct: also called Alexa488-PIVKAII (13-27); Alexa488-PIVKAII peptide (13-27 cyc)
T2 peptide: LERECVEETCSYEEA
As to the kind of experiment: fluorescence quenching (FRET) titration in solution, BHQ-labeled mAb, 0.05 nM Alexa488 peptide. The method, then: The binding curve was fit with a simple fitting model.
All binding measurements were performed in 10 mM HEPES buffer, pH 7.4, containing 0.15M NaCl, 3 mM EDTA, and 0.005% surfactant P20.

As for B1, the binding result in experiment [1] was “no binding”.

Turning to B2, the binding result in experiment [1] was “no binding”.

In the case of B3, the binding result in experiment [2] is on record as “binds”.

B4: the binding result in experiment [1] was “no binding”.

Turning to B5, in experiment [1], the binding result was “no binding”.

Regarding B6, the binding result in experiment [1] is on record as “no binding”.

Take B7: the binding result in experiment [3] is recorded as “binds”. The affinity in experiment [4], expressed as Kd, was 0.15 nM.

With B8, the binding result in experiment [1] is “no binding”.
